According to patent US20130116417:
pKd: −log10 of the molar value.

Test system: monoclonal antibody 2G12 (anti-HIV gp120)
Assay: filter

Sequence | pKd (each U is 5-ethynyl-dU glycosylated with Man4-azide by CuAAAC click (10 sites), T in the primer region unmodified, 20 mM Tris pH 7.5, 100 mM NaCl, 2 mM MgSO4, 0.02% Tween-20, room temperature, 3 h, after 7 SELMA rounds) | binding (library template (-)-strand listed, assayed (+)-strand has 5-ethynyl-dU in place of T, glycosylated with Man4-azide, initial random library, less than 3% bound)
CACCAAATACGGGTACGGGCCCGGCUGUUUCAGAUGCUGUAAGUAAGGUGACUGCGGAACAACAG [Man4-16 (clone 16 glyco-DNA)] | 6.66 | –
CTGTTGTTCCGCAGTCACCTTNNNNNNNNNNNNNNNNNNNNNNNNNCCCGTACCCGTATTTGGTGGCAAGGATGACAAGGATTTTATATTTTATATTTTTATTTTATTATCGGGTACGGG [initial random glyco-DNA library] | – | < 3 % bound
